Patent publication US20030186847A1, “Insulin derivatives and synthesis thereof” (priority 2000, published 2003)
Values joined by “and” are separate entries in the source; they are usually repeats but may differ in a detail not shown here. Equal entries are not always repeated.

Tests used:
insulin receptors on LPM = biological target: T1, insulin receptors on LPM (Rattus norvegicus, UniProt P15127); assay: Equilibrium binding assay: inhibition of [125I]insulin binding to rat liver plasma membrane (LPM); conditions: absence of THBPs
T1 construct: isolate plasma membrane fractions from fresh rat livers; from tissue; host or cells: rat liver plasma membrane (microsomal light fraction)
Source text: Rat liver plasma membrane (LPM) was isolated to be used in equilibrium binding assays as the source of insulin receptors.
This equilibrium binding assay determines the analogues affinity to the insulin receptors on the LPM, both in the presence and absence of the THBPs. […] The amount of bound tracer was counted in the γ counter after separating the bound and free species by centrifugation.
For the binding assays performed in the presence THBP, shifts in the binding curves and the changes in ED50s and RPE are described relative to binging of the same analogue in the absence of THBP.

[1] = system: primary antibody W12 (polyclonal anti-insulin antibody); assay: Double-antibody radioimmunoassay: inhibition of [125I]insulin binding to primary antibody W12; design: species or system guinea-pig; conditions: standard solutions, RIA
Experimental: The assay was calibrated using insulin standards. […] A double dispenser (Dilutrend, Boehringer Corporation London Ltd) was used to add the appropriate volume of buffer and standard or FPLC fractions into the labelled LP3 tubes. The total volume of each tube was 500 μl. In addition, three tubes of NSB (non-specific binding), containing the standardized HSA concentration, were prepared with, Barbitone/HSA(0.2% w/v) and FPLC/Barbitone/HSA buffers. […] The radioactivity in 100 μl of the resulting tracer solution was counted in the γ-counter, and the counts per minute (cpm) should lie between 3000-5000 cpm. ANSA (2 mg/ml) was dissolved in the solution, and it functioned to displace the T4 moieties on the analogues from the THBPs, since the THBP could be shielding the insulin moiety that was to be assayed. Finally, 100 μl of this solution was added to every tube. The primary antibody, [MUT], is a polyclonal, guinea-pig anti-insulin antibody. […] It was diluted to 1:45,000 in Barbitone/HSA(0.2% w/v) buffer, and 100 μl was added to every tube, except the TC and NSB tubes. […] Finally, the samples, together with the TC and NSB tubes, were counted in the γ-counter using a programme for […] ). Double antibody RIA was used to quantify the immunoreactive insulin (IRI) in the FPLC fractions.

[2] = biological target: T2, TBG (thyroxine binding globulin) (Homo sapiens, UniProt P05543); assay: FPLC binding to THBPs after overnight incubation, IRI by RIA: TBG; conditions: TBG 0.238 μM
T2 sequence (P05543 21-415): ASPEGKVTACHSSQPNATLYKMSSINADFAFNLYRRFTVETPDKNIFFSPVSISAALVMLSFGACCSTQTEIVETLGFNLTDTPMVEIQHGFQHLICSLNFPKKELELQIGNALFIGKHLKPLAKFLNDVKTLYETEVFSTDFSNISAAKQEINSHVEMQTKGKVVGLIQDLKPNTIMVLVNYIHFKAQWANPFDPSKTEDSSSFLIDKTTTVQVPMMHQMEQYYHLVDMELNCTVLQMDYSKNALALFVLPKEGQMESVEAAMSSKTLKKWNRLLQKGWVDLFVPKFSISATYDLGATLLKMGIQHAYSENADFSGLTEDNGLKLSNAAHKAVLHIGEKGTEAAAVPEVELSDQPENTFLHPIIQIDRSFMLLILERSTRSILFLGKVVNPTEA

[3] = biological target: T3, plasma protein thyroxine binding globulin (TBG) (Homo sapiens, UniProt P05543); assay: IAsys optical biosensor kinetic binding to immobilized TBG; conditions: control, 500 μg/ml
T3 sequence (P05543 21-415): T2 sequence (P05543 21-415)
Experimental: The optical bio-sensor IAsys makes it possible to record biomolecular interactions in real time and thus kinetical studies.
The surface of the cuvette is covered with a carboxymethylated dextran matrix (CMD), to which the plasma protein TBG is immobilized.
Immobilization of TBG to the carboxymethylated matrix is detected via the change of the resonance angle.
For the kinetical studies the Thyroid-Insulin conjugates were injected into the microcuvette in dilution series of 200, 300, 400 and 500 μg/ml in HBS/Tween-buffer at 25° C. To test for reproducibility, all measurements were repeated 3 times.
Determination of “on-rate” constants kon at various ligand concentrations cL allow kon to be plotted against cL according to equation (4). This gives the association rate constant kA from the slope and the dissociation rate constant kD at C2=O. It has, however, to be taken into account that the error of kD becomes too large when kD<0,01 s^−1 (IAsys, METHODS GUIDE).
The association and dissociation curves of the 3 Thyroid-Insulin-conjugates indicated in Table 3 were analyzed with the program Fast-fit.
Evaluation of dissociation was also via single phase curve-fitting, for the same reasons as above.

[4] = system: normal human serum (TBG, albumin, prealbumin); assay: FPLC binding to THBPs after overnight incubation, IRI by RIA: normal human serum; assay type: in vitro ADME; conditions: normal human serum undiluted
Experimental: To ascertain the binding of the insulin or the analogue to the thyroid hormone binding proteins (THBPs), they were incubated overnight at 4° C. The bound and unbound species were separated by molecular weight with FPLC.
Solutions (0.5 ml) of THBPs were prepared in FPLC buffer as follows and then vortexed:
It was vortexed and incubated at 4° C. for ≈16 hours or overnight. Before FPLC, it was vortexed again, and filtered through a syringe filter of pore size 0.2 μm (Acrodisc® LC13 PVDF from Gelman, UK) to remove bacteria and serum precipitates.
The fraction tubes (LP3 tubes) were coated with 50 μl 3% (w/v) HSA to prevent the analogues from adsorbing to the tubes' inner surfaces. The fraction size was programmed as 0.50 ml. Immunoreactive insulin in each fraction was assayed with radioimmunoassay on the same day.
IRI content in each fraction was assayed by RIA.
FIGS. 3a-d show the elution profiles of the conjugates after overnight incubation with 5% human serum albumin (HSA). […] The calculated % bound and % free values are included in Table 3. Appearances of the THBPS, as detected by UV absorbance on the original chromatogram (which was not sensitive enough to detect the analogues) are also indicated as arrows on the elution profiles. The shadowed box represents the bound fractions; the clear box represents free fractions.

T1 sequence (P15127 27-759 limits assumed): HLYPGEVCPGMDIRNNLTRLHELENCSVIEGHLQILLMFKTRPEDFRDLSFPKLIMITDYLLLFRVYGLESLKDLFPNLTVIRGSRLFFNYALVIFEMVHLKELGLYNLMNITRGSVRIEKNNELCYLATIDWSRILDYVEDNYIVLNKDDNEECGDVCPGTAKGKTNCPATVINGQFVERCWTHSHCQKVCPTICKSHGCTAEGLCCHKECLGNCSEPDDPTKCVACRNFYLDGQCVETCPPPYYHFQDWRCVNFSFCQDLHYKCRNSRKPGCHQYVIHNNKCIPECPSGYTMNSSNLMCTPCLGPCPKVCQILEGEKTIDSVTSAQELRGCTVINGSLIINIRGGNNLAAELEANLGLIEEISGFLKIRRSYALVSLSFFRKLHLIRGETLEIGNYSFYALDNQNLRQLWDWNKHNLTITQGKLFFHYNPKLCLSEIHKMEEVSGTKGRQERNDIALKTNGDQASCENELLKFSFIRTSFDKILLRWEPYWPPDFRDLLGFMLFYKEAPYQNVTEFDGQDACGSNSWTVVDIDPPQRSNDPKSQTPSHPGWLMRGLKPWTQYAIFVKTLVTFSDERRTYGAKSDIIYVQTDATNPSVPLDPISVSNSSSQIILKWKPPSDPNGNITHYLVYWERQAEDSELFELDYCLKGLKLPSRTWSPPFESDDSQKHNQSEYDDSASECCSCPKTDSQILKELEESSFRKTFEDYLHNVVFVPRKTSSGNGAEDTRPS

With “H-Ins: unmodified (native, human) insulin used as control and reference” the “Mean ED50 ± SEM” value (insulin receptors on LPM) was 8.49 ± 0.69 nM, the “ED50, inhibition of [125I]insulin binding to W12” value [1] was 1.065 nM and the “Mean % Free (fractions 15.5-25 ml)” value [2] was 90.15%. The “Mean % Bound (fractions 5.5-15 ml)” value ([2]; n = 3) was 9.85% and 9.85 ± 2.14%, the “association to immobilized TBG” value [3] was “association cannot be observed” and the “Mean % Free (fractions 15.5-25 ml)” value [4] was 98.39%. The “Mean % Bound (fractions 5.5-15 ml)” value ([4]; n = 3) was 1.61 ± 0.47%.
